Measured values reported in paper PMC3554717 (2013).

B1: LYP tagged with the myc epitope, Arg620 variant (myc-LYPR) [human] / HA-CSK [not stated] (parent complex)
chain 1: MDQREILQKFLDEAQSKKITKEEFANEFLKLKRQSTKYKADKTYPTTVAEKPKNIKKNRYKDILPYDYSRVELSLITSDEDSSYINANFIKGVYGPKAYIATQGPLSTTLLDFWRMIWEYSVLIIVMACMEYEMGKKKCERYWAEPGEMQLEFGPFSVSCEAEKRKSDYIIRTLKVKFNSETRTIYQFHYKNWPDHDVPSSIDPILELIWDVRCYQEDDSVPICIHCSAGCGRTGVICAIDYTWMLLKDGIIPENFSVFSLIREMRTQRPSLVQTQEQYELVYNAVLELFKRQMDVIRDKHSGTESQAKHCIPEKNHTLQADSYSPNLPKSTTKAAKMMNQQRTKMEIKESSSFDFRTSEISAKEELVLHPAKSSTSFDFLELNYSFDKNADTTMKWQTKAFPIVGEPLQKHQSLDLGSLLFEGCSNSKPVNAAGRYFNSKVPITRTKSTPFELIQQRETKEVDSKENFSYLESQPHDSCFVEMQAQKVMHVSSAELNYSLPYDSKHQIRNASNVKHHDSSALGVYSYIPLVENPYFSSWPPSGTSSKMSLDLPEKQDGTVFPSSLLPTSSTSLFSYYNSHDSLSLNSPTNISSLLNQESAVLATAPRIDDEIPPPLPVRTPESFIVVEEAGEFSPNVPKSLSSAVKVKIGTSLEWGGTSEPKKFDDSVILRPSKSVKLRSPKSELHQDRSSPPPPLPERTLESFFLADEDCMQAQSIETYSTSYPDTMENSTSSKQTLKTPGKSFTRSKSLKILRNMKKSICNSCPPNKPAESVQSNNSSSFLNFGFANRFSKPKGPRNPPPTWNI
chain 2: MSAIQAAWPSGTECIAKYNFHGTAEQDLPFCKGDVLTIVAVTKDPNWYKAKNKVGREGIIPANYVQKREGVKAGTKLSLMPWFHGKITREQAERLLYPPETGLFLVRESTNYPGDYTLCVSCDGKVEHYRIMYHASKLSIDEEVYFENLMQLVEHYTSDADGLCTRLIKPKVMEGTVAAQDEFYRSGWALNMKELKLLQTIGKGEFGDVMLGDYRGNKVAVKCIKNDATAQAFLAEASVMTQLRHSNLVQLLGVIVEEKGGLYIVTEYMAKGSLVDYLRSRGRSVLGGDCLLKFSLDVCEAMEYLEGNNFVHRDLAARNVLVSEDNVAKVSDFGLTKEASSTQDTGKLPVKWTAPEALREKKFSTKSDVWSFGILLWEIYSFGRVPYPRIPLKDVVPRVEKGYKMDAPDGCPPAVYEVMKNCWHLDAAMRPSFLQLREQLEHIKTHELHL

Variants of: B1
Assay: co-immunoprecipitation (IP anti-myc, IB HA), blot densitometry; HEK293 cells; parent: 64.8

Variant | response
chain 1 R620F | 5.2 arbitrary units
chain 1 R620F, chain 1 R700F | 0.03 arbitrary units
chain 1 R700F | 30 arbitrary units

Variants of: B1
Assay: co-immunoprecipitation (IP anti-myc, IB HA), blot densitometry; transfected HEK293 cells; parent: 48.1

Variant | response
chain 1 P695A | 23.3 arbitrary units
chain 1 P615A, chain 1 P618A, chain 1 P695A | 0.77 arbitrary units
chain 1 P615A, chain 1 P618A | 10.3 arbitrary units

Next, values leading:

response | Variant
18 arbitrary units | chain 1 R620W
0.07 arbitrary units | chain 1 R620W, chain 1 P695A

Variants of: B1
Assay: co-immunoprecipitation (IP anti-myc, IB HA), blot densitometry; transiently transfected HEK293 cells; pEF empty-vector lane 3.67; parent: 57.8

Variant | response
chain 1 R620W | 19.5 arbitrary units
chain 1 I626A, chain 1 V627A | 19.1 arbitrary units
